Measured values published in article PMC4960556.

Molecular target: prostate-specific membrane antigen (PSMA) (UniProt Q04609)
Assay: confocal microscopy on cells (binding and internalization)
Settings: 2'-F pyrimidines (stated for PSEP; implied), Flow binding: 50 nM Cy3-RNA on trypsinized, PBS-washed cells, 300 ug/ml yeast tRNA, 30 min, 37 C, internalization: 100 nM in RPMI 1640 + 5% FBS

Sequence of UniProt Q04609 (Q04609 whole entry): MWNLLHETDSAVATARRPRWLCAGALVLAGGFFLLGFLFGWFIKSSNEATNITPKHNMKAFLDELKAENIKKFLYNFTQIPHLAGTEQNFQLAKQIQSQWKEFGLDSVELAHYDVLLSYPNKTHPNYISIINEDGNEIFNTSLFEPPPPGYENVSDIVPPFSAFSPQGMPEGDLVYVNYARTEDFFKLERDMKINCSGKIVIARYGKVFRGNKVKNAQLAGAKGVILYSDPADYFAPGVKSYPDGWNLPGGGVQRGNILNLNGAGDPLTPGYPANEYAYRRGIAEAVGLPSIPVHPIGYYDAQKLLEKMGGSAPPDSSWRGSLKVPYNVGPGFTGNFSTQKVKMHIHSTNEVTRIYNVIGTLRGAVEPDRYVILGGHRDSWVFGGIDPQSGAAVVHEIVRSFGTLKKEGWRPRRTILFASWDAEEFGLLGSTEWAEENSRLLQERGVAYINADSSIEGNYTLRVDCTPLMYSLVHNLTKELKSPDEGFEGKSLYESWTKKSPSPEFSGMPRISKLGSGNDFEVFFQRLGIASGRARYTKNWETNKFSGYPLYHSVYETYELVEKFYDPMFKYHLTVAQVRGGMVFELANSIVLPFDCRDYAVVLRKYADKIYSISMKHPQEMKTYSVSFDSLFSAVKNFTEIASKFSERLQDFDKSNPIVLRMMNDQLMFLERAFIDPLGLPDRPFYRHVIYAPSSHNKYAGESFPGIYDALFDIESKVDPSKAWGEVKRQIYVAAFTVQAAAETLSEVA

Sequence: GGGAGGACGAUGCGGAUCAGCCAUGUUUACGUCACUCCUAAAAUGUAGAGAUGCGGUGGUCCUU / GGAUCCCGACUGGCGAGAGCCAGGUAACGAAUGGAUCCAAAAACCUUAGCAGUCUUAUCUAAUUUUGGACCACCGCAUCUCUACAUU / UUAGAUAAGACUGCUAAGGCA [PSEM (monovalent: one PSMA aptamer, one MG aptamer)]
- binding signal (fraction of PSEP fluorescence): 0.5
